“Also recorded” adds a separate entry of the source.
B1: sLZIP: human small leucine-zipper protein, isoform of LZIP, 354 amino acids, no transmembrane domain, GenBank FJ263669, SEQ ID NO: 1 (protein, listed as Homo sapiens)
chain: MELELDAGDQDLLAFLLEESGDLGTAPDEAVRAPLDWALPLSEVPSDWEVDDLLCSLLSPPASLNILSSSNPCLVHHDHTYSLPRETVSMDLESESCRKEGTQMTPQHMEELAEQEIARLVLTDEEKSLLEKEGLILPETLPLTKTEEQILKRVRRKIRNKRSAQESRRKKKVYVGGLESRVLKYTAQNMELQNKVQLLEEQNLSLLDQLRKLQAMVIEISNKTSSSSMYSSDTRGSLPAEHGVLSRQLRALPSEDPYQLELPALQSEVPKDSTHQWLDGSDCVLQAPGNTSCLLHYMPQAPSAEPPLEWPFPDLFSEPLCRGPILPLQANLTRKGGWLPTGSPSVILQDRYSG
B2: N domains of sLZIP: N-terminal deletion mutant of sLZIP (1-228) (protein)
chain: MELELDAGDQDLLAFLLEESGDLGTAPDEAVRAPLDWALPLSEVPSDWEVDDLLCSLLSPPASLNILSSSNPCLVHHDHTYSLPRETVSMDLESESCRKEGTQMTPQHMEELAEQEIARLVLTDEEKSLLEKEGLILPETLPLTKTEEQILKRVRRKIRNKRSAQESRRKKKVYVGGLESRVLKYTAQNMELQNKVQLLEEQNLSLLDQLRKLQAMVIEISNKTSSSS
modifications: left off: a dimerising Fc or GST

Test system: PPARγ2
Assay: GST / His pull-down and immunoprecipitation of sLZIP with PPARγ2
Format: binding
Procedure: 293T cells were obtained and washed with cold PBS. The cells were re-suspended in an IP lysis buffer [25 mM of Tris-HCl (pH 7.4), 150 mM of NaCl, 1 mM of EDTA, 1% NP-40 and 5% glycerol, and a protease inhibitor]. A suspension was centrifuged at 16,000×g for 20 minutes at 4° C. Supernatants were collected and incubated with 0.5 μg of appropriate antibodies and 25 μl of protein A/G-agarose or a GST Sepharose 4B bead for 24 hours at 4° C. A protein complex was centrifuged at 1,000×g with a cold IP lysis buffer for 1 minute and washed five times. The final pellet was re-suspended in 50 μl of an SDS-sample buffer containing 5% β-mercaptoethanol and heated for 10 minutes at 100° C. A protein sample was isolated in SDS-PAGE (8 to 10%) and transferred to nitrocellulose membranes. Co-precipitated proteins were detected according to western blotting using specific antibodies.
In order to examine whether the transcriptional activity of PPARγ2 is regulated by interaction with sLZIP, interaction between sLZIP and PPARγ2 was examined. For this purpose, 293T cells were transfected with GST-sLZIP and Myc-PPARγ2. Cell lysates were obtained and GST pull-down analysis was performed using a glutathione 4B bead. A protein complex was analyzed in SDS-PAGE and then immunoblotted with specific antibodies (FIG. 2A). The 293T cells were transfected with GST-PPARγ2 and Flag-sLZIP, and identified according to GST-pull-down analysis (FIG. 2B). PPARγ2 was translated in vitro by a TNT translation system (Promega). His-sLZIP proteins were expressed in BL21 cells using an IPTG-inducement system. Purified His-sLZIP proteins were subjected to His pull-down analysis. Proteins bound to the bead were analyzed in SDS-PAGE, and then immunoblotted with anti-PPARγ2 and anti-His antibodies (FIG. 2C). GFP-PPARγ2 and Flag-sLZIP constructs were expressed in C3H10T1/2 cells, and analyzed using mouse anti-Flag and Texas Red-labeled anti-mouse antibodies under a fluorescence microscope. The nucleus was stained with DAPI (FIG. 2D).
Activation of many nuclear receptors depends on a supplement of coactivators. Therefore, a domain of sLZIP necessary for binding with PPARγ2 was examined. For this purpose, 293T cells were transfected with GST-full length sLZIP (1-354), N-terminal deletion mutant sLZIP (1-228), C-terminal deletion mutant sLZIP (229-354), CC-terminal deletion mutant sLZIP (297-354) and PPARγ2. Cell lysates were obtained and GST pull-down analysis was performed using a glutathione 4B bead. A protein complex was analyzed in SDS-PAGE, and then immunoblotted with specific antibodies (FIG. 3A). 293T cells were transfected with Flag-full length PPARγ2, full length PPARγ2, N-terminal deletion mutant PPARγ2 (1-310), C-terminal deletion mutants PPARγ2 (139-505) and GST-sLZIP. Cell lysates were obtained and GST pull-down analysis was performed. A protein complex was analyzed in SDS-PAGE, and then immunoblotted with anti-GST and anti-Flag antibodies (FIG. 3B).
For this purpose, 293T cells were transfected with GST-PPARγ2 and Flag-sLZIP and were treated or not treated with 10 nM of RZD for 24 hours. Cell lysates were obtained and GST pull-down analysis (FIG. 5A) and immunoprecipitation (FIG. 5B) were performed using a glutathione 4B bead. A protein complex was analyzed in SDS-PAGE, and immunoblotted with anti-GST and anti-Flag antibodies. GST-PARγ2 and Flag-sLZIP were expressed in the 293T cells, and the cells were treated with 10 nM of RZD according to time of day. The cell lysates were GST pull-down analyzed (FIG. 5C). 293T cells were transfected with GST-HDAC3 and Flag-sLZIP, and treated or not treated with 10 nM of RZD for 24 hours. The cell lysates were GST pull-down analyzed (FIG. 5D). Flag-sLZIP was expressed in the 293T cells, and the cells were treated with 10 nM of RZD for 24 hours. Immunoprecipitation analysis of the cell lysates was performed using anti-NCoR1 antibodies. […]

[1] = GST pull-down, transfected 293T cells

Molecule	interaction with PPARγ2 [1]	interaction with PPARγ2 (GST pull-down, transfected 293T cells, listed as wild type sLZIP)	direct interaction with PPARγ2 (His pull-down, purified His-sLZIP and in vitro translated PPARγ2)	interaction with PPARγ2 (ligand treated (10 nM RZD), GST pull-down or immunoprecipitation)	interaction with PPARγ2 (no stimulation with a ligand, GST pull-down)
B1	PPARγ2 interacted with sLZIP	interacted with PPARγ2	directly bound	dissociated from sLZIP; also recorded: dissociated from PPARγ2 in a time-dependent manner	interacted with PPARγ2
B2	not interacted with PPARγ2				
